Data published in doi:10.1101/2022.06.12.495819 (bioRxiv, 2022).

Legend:
[1] = molecular target: Tomato SlDXS1, truncated version lacking the N-terminal plastid targeting peptide, 6xHis-tagged (Solanum lycopersicum (tomato)); experiment: cross-linking
[2] = molecular target: Tomato SlDXS1, truncated version lacking the N-terminal plastid targeting peptide, 6xHis-tagged (Solanum lycopersicum (tomato)); experiment: dynamic light scattering
cross-linking = molecular target: the molecule itself; experiment: cross-linking
[3] = molecular target: the molecule itself; experiment: SDS-PAGE with non-denaturing loading buffer and immunoblot

Molecule: Tomato SlDXS1, truncated version lacking the N-terminal plastid targeting peptide, 6xHis-tagged (enzyme)
- stoichiometry N [1]: 2
- stoichiometry N [2]: 2

B1: Escherichia coli deoxyxylulose 5-phosphate synthase (EcDXS), 6xHis-tagged, full length (enzyme)
chain: MSFDIAKYPTLALVDSTQELRLLPKESLPKLCDELRRYLLDSVSRSSGHFASGLGTVELTVALHYVYNTPFDQLIWDVGHQAYPHKILTGRRDKIGTIRQKGGLHPFPWRGESEYDVLSVGHSSTSISAGIGIAVAAEKEGKNRRTVCVIGDGAITAGMAFEAMNHAGDIRPDMLVILNDNEMSISENVGALNNHLAQLLSGKLYSSLREGGKKVFSGVPPIKELLKRTEEHIKGMVVPGTLFEELGFNYIGPVDGHDVLGLITTLKNMRDLKGPQFLHIMTKKGRGYEPAEKDPITFHAVPKFDPSSGCLPKSSGGLPSYSKIFGDWLCETAAKDNKLMAITPAMREGSGMVEFSRKFPDRYFDVAIAEQHAVTFAAGLAIGGYKPIVAIYSTFLQRAYDQVLHDVAIQKLPVLFAIDRAGIVGADGQTHQGAFDLSYLRCIPEMVIMTPSDENECRQMLYTGYHYNDGPSAVRYPRGNAVGVELTPLEKLPIGKGIVKRRGEKLAILNFGTLMPEAAKVAESLNATLVDMRFVKPLDEALILEMAASHEALVTVEENAIMGGAGSGVNEVLMAHRKPVPVLNIGLPDFFIPQGTQEEMRAELGLDAAGMEAKIKAWLA
- stoichiometry N (cross-linking): 2

B2: Tomato SlDXS1, full-length protein with C-terminal myc tag (pGWB420-SlDXS1), expressed in N. benthamiana leaves (enzyme)
chain: SLSESGEYYTQRPPTPILDTVNYPIHMKNLSLKELKQLADELRSDTIFNVSKTGGHLGSSLGVVELTVALHYVFNAPQDRILWDVGHQSYPHKILTGRRDKMSTLRQTDGLAGFTKRSESEYDCFGTGHSSTTISAGLGMAVGRDLKGRNNNVIAVIGDGAMTAGQAYEAMNNAGYLDSDMIVILNDNRQVSLPTATLDGPVAPVGALSSALSRLQSNRPLRELREVAKGVTKQIGGPMHELAAKVDEYARGMISGSGSTLFEELGLYYIGPVDGHNIDDLIAILKEVRSTKTTGPVLIHVVTEKGRGYPYAERAADKYHGVAKFDPATGKQFKASAKTQSYTTYFAEALIAEAEADKDIVAIHAAMGGGTGMNLFHRRFPTRCFDVGIAEQHAVTFAAGLACEGIKPFCAIYSSFMQRAYDQVVHDVDLQKLPVRFAMDRAGLVGADGPTHCGAFDVTYMACLPNMVVMAPSDEAELFHMVATAAAIDDRPSCFRYPRGNGIGVELPAGNKGIPLEVGKGRILIEGERVALLGYGSAVQNCLDAAIVLESRGLQVTVADARFCKPLDHALIRSLAKSHEVLITVEEGSIGGFGSHVVQFMALDGLLDGKLKWRPIVLPDRYIDHGSPVDQLAEAGLTPSHIAATVFNILGQTREALEVMT
- stoichiometry N [3]: 2
